Measurements taken from doi:10.1101/2025.05.29.656919 (bioRxiv, 2025).
Positions count from the first letter of the chain named. In names and notes the source's numbering stands.

Assays:
Assay in all cases: pull-down
[1] = molecular target: T1, Glutathione S-transferase-fused VDAC3 (Arabidopsis, UniProt Q9SMX3 1-274)
T1 sequence (looked up): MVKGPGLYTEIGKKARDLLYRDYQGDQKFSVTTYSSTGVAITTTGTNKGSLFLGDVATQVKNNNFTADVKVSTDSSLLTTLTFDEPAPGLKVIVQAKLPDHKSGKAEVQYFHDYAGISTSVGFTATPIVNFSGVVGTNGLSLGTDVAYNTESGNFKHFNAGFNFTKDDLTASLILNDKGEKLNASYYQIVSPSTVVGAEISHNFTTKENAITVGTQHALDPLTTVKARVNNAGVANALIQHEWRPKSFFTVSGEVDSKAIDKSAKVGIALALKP

[2] = molecular target: T2, Glutathione S-transferase-fused VDAC1 (Arabidopsis, UniProt Q9SRH5 1-276)
T2 sequence (looked up): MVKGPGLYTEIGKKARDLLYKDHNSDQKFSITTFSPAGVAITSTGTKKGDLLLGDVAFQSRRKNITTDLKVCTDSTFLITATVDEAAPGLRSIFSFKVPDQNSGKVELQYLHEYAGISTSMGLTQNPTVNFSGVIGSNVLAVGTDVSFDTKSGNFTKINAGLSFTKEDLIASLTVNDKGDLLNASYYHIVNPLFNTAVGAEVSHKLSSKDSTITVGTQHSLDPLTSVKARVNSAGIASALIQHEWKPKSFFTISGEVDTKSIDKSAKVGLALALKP

[3] = molecular target: T3, Glutathione S-transferase-fused VDAC2 (Arabidopsis, UniProt Q9FJX3 1-276)
T3 sequence (looked up): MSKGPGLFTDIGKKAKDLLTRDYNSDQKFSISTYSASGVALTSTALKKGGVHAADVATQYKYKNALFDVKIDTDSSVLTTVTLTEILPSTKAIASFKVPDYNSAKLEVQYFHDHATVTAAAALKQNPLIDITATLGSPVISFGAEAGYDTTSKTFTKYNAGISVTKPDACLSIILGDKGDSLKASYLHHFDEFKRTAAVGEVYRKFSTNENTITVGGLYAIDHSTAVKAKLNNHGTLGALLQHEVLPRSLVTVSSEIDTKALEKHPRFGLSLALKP

Measured: binding result

B1: 6×His-tagged ATG8e (natural protein, Arabidopsis, UniProt Q8S926 1-118, looked up)
chain: MNKGSIFKMDNDFEKRKAEAGRIREKYPDRIPVIVEKAEKSEVPNIDKKKYLVPSDLTVGQFVYVIRKRIKLSAEKAIFIFVDNVLPPTGELMSSVYEDKKDEDGFLYITYSGENTFG
binds: all assays above

B2: ATG8e with UDS mutation (I78A, F79A, I80A) (natural protein, Arabidopsis, UniProt Q8S926 1-118, looked up)
chain: B1 chain with I78A, F79A, I80A
binds: all assays above
